Test results as given in US11807887B2, “Compositions and methods related to nucleic acid synthesis” (Nuclera Ltd., priority 2015, dated 2023).

Columns and labels:
Type in all cases: biochemical
[1] = system: single-stranded DNA initiator (SEQ ID NO: 7); test: Addition of 3′-O-azidomethyl nucleotide triphosphates to a DNA initiator by TdT orthologs, capillary electrophoresis; settings: for ability to add 3′-O reversibly terminated (blocked) nucleotide triphosphates: 3′-O-azidomethyl nucleotide triphosphate, FIG. 3; for performance in adding 3′-O-azidomethyl dTTP and 3′-O-azidomethyl dCTP compared to Bos taurus TdT: 20 min, capillary electrophoresis
Procedure: (A) A single-stranded DNA initiator was incubated with TdT with the indicated species for 60 min in the above mentioned buffer and reaction conditions. Reactions were then analysed by capillary electrophoresis and a subset of chromatograms are shown. (B) Fraction of DNA initiator strand converted to N+1 species (addition of 3′-O-azidomethyl dTTP) in one hour. (C) Three TdT orthologs were reacted with 3′-O-azidomethyl dTTP and 3′-O-azidomethyl dCTP for 20 min.
A single-stranded DNA initiator (SEQ ID NO: 7) was incubated with purified, recombinant TdT orthologs, required salts (50 mM potassium acetate, 20 mM tris acetate pH 7.9, 1.5 mM cobalt chloride, Saccharomyces cerevisiae inorganic pyrophosphatase), and 3′-O-azidomethyl dTTP at 37° C. for 60 min. The 3′-blocked nucleotide triphosphate was at a concentration of 1 mM and the DNA initiator at 200 nM and analysed via capillary electrophoresis as shown in FIG. 3(A).
The experiment was repeated with the exception that both 3′-O-azidomethyl dTTP and 3′-O-azidomethyl dCTP was used as the 3′-blocked nucleotide triphosphate. The reaction was stopped after 20 min and analysed via capillary electrophoresis.

[2] = system: single-stranded DNA initiator (SEQ ID NO: 7); test: Engineered versus wild-type Lepisosteus oculatus TdT, addition of 3′-reversibly blocked dNTP measured by PAGE; settings: 3′-reversibly blocked dCTP, dGTP or dTTP, 1 mM, 37° C., 20 min
Procedure: Addition of the dNTP was measured by PAGE and the conversion relative to wild-type TdT was plotted.
A single-stranded DNA initiator (SEQ ID NO: 7) was incubated with either a purified wild-type Lepisosteus oculatus TdT or a purified, recombinant engineered form of Lepisosteus oculatus TdT (SEQ ID NO: 8), required salts, cobalt chloride, Saccharomyces cerevisiae inorganic pyrophosphatase, and 3′-O-azidomethyl dTTP at 37° C. for 20 min.

[3] = system: single-stranded DNA initiator (SEQ ID NO: 7); test: Engineered Lepisosteus oculatus TdT versus Bos taurus TdT, denaturing PAGE gel; settings: 3′-O-azidomethyl dTTP, 37° C., 10 min
Procedure: A single-stranded DNA initiator (SEQ ID NO: 7) was incubated with a purified, recombinant engineered form of Lepisosteus oculatus TdT, required salts, cobalt chloride, Saccharomyces cerevisiae inorganic pyrophosphatase, and 3′-O-azidomethyl dTTP at 37° C. for 10 min.

B1: Bos taurus TdT: commercially available terminal deoxynucleotidyl transferase from Bos taurus (UniProt: P06526) (protein, listed as Bos taurus)
chain: MDPLCTASSGPRKKRPRQVGASMASPPHDIKFQNLVLFILEKKMGTTRRNFLMELARRKGFRVENELSDSVTHIVAENNSGSEVLEWLQVQNIRASSQLELLDVSWLIESMGAGKPVEITGKHQLVVRTDYSATPNPGFQKTPPLAVKKISQYACQRKTTLNNYNHIFTDAFEILAENSEFKENEVSYVTFMRAASVLKSLPFTIISMKDTEGIPCLGDKVKCIIEEIIEDGESSEVKAVLNDERYQSFKLFTSVFGVGLKTSEKWFRMGFRSLSKIMSDKTLKFTKMQKAGFLYYEDLVSCVTRAEAEAVGVLVKEAVWAFLPDAFVTMTGGFRRGKKIGHDVDFLITSPGSAEDEEQLLPKVINLWEKKGLLLYYDLVESTFEKFKLPSRQVDTLDHFQKCFLILKLHHQRVDSSKSNQQEGKTWKAIRVDLVMCPYENRAFALLGWTGSRQFERDIRRYATHERKMMLDNHALYDKTKRVFLKAESEEEIFAHLGLDYIEPWERNA
ability to add 3′-O reversibly terminated (blocked) nucleotide triphosphates [1]: only efficiently adds irreversibly blocked nucleotides
ability to add 3′-O reversibly terminated (blocked) nucleotide triphosphates ([1]; listed as recombinant TdT sourced from calf thymus): unable to add 3′-O-terminated nucleotide triphosphates in a quantitative fashion

B2: Lepisosteus oculatus TdT: terminal deoxynucleotidyl transferase sequence from Lepisosteus oculatus (UniProt: W5MK82) (protein, listed as Lepisosteus oculatus)
chain: MLHIPIFPPIKKRQKLPESRNSCKYEVKFSEVAIFLVERKMGSSRRKFLTNLARSKGFRIEDVLSDAVTHVVAEDNSADELWQWLQNSSLGDLSKIEVLDISWFTECMGAGKPVQVEARHCLVKSCPVIDQYLEPSTVETVSQYACQRRTTMENHNQIFTDAFAILAENAEFNESEGPCLAFMRAASLLKSLPHAISSSKDLEGLPCLGDQTKAVIEDILEYGQCSKVQDVLCDDRYQTIKLFTSVFGVGLKTAEKWYRKGFHSLEEVQADNAIHFTKMQKAGFLYYDDISAAVCKAEAQAIGQIVEETVRLIAPDAIVTLTGGFRRGKECGHDVDFLITTPEMGKEVWLLNRLINRLQNQGILLYYDIVESTFDKTRLPCRKFEAMDHFQKCFAIIKLKKELAAGRVQKDWKAIRVDFVAPPVDNFAFALLGWTGSRQFERDLRRFARHERKMLLDNHALYDKTKKYLKKKTTNNYLALNDVCSDLSEWHYKG
performance in adding 3′-O-azidomethyl dTTP and 3′-O-azidomethyl dCTP compared to Bos taurus TdT [1]: consistently perform better compared to Bos taurus TdT

B3: engineered variant (SEQ ID NO: 8): variant of SEQ ID NO: 2 engineered for improved activity by alteration of the amino acid sequence (protein)
chain: MLHIPIFPPIKKRQKLPESRNSCKYEVKFSEVAIFLVERKMGSSRRKFLTNLARSKGFRIEDVLSDAVTHVVAENNSADELLQWLQNSSLGDLSKIEVLDISWFTECMGAGKPVQVEARHCLVKSCPVIDQYLEPSTVETVSQYACQRRTTMENHNQIFTDAFAILAENAEFNESEGPCLAFMRAASLLKSLPHAISSSKDLEGLPCLGDQTKAVIEDILEYGQCSKVQDVLCDDRYQTIKLFTSVFGVGLRTAEKWYRKGFHSLEEVQADNAIHFTKMQKAGFLYYDDISAAVCKAEAQAIGQIVEETVRLIAPDAIVTLTGGFRRGKECGHDVDFLITTPEMGKEVWLLNRLINRLQNQGILLYYDIVESTFDKTRLPCRKFEAMDHFQKCFAIIKLKKELAAGRVQKDWKAIRVDFVAPPVDNFAFALLGWTGSRQFERDLRRFARHERKMLLDNHALYDKTKKIFLPAKTEEDIFAHLGLDYIDPWQRNA
conversion of initiator strand of length n to n+1 versus wild-type Lepisosteus oculatus TdT [2]: improved ability to convert the initiator strand of length n to a strand of length n+1
incorporation of 3′-reversibly blocked nucleotides versus Bos Taurus TdT [3]: much better than Bos Taurus TdT
incorporation of 3′-reversibly blocked nucleotides versus wild-type Lepisosteus oculatus TdT [3]: better than the wild-type Lepisosteus oculatus TdT

B4: Sarcophilus harrisii TdT: terminal deoxynucleotidyl transferase sequence from Sarcophilus harrisii (UniProt: G3VQ55) (protein, listed as Sarcophilus harrisii)
chain: MHRIRTTDSDHGKKRQKKMDAISSKLYEIKFHEFVLFILEKKMGATRRTFLMDLARKKGFRVESELSNSVTHIVAENNSGSDVLAWLEAHKLETTAHFELLDVSWLIECMKVGKPVDTKGKYQLVESSIASANPDPNEGMLKIQSPAMNAISPYACQRRTTLNNHNQRFTDAFEILAKNYEFRENHGHCLTFLRATSVLKCLPFAIVSMKDAEGLPWIGDEVKGIMEEIIEDGQSLEVQAVLNDERYQAFKLFTSVFGVGLKTAEKWYRMGFRTLSKIQSDKSLKFTKMQKAGFLYYEDLISCVSKAEADAVSLIVKEAVWTFLPDALITITGGFRRGKEFGHDVDFLITSPGGEKEQVDQLLQKVTNLWEKQGLLLYYDLMESTFEDLKLPSRKVDALDHFQKCFLILKLYCQRGDRSKWEGPEGSNGLQTKNWKAIRVDLVVCPYDRYAYALLGWSGSRQFERDLRRYATHEKKMMLDNHALYDKTKRTFLKAESEEEIFSHLGLEYIEPWERNA
performance in adding 3′-O-azidomethyl dTTP and 3′-O-azidomethyl dCTP compared to Bos taurus TdT [1]: consistently perform better compared to Bos taurus TdT
